Reference: paper PMC10560217, “Structural conservation of insulin/IGF signalling axis at the insulin receptors level in Drosophila and humans” (Nature Communications, 2023)

Molecular target: the molecule itself
Assay: cryo-EM structure; equal volumes of 10 uM dmIR-ECD and 50 uM DILP5 (five-molar hormone excess) in 50 mM Tris, 150 mM NaCl, pH 7.4; reconstruction at 4.0 A

B1: Drosophila insulin receptor ectodomain (dmIR-ECD) (domain or fragment, Drosophila melanogaster, UniProt P09208 264-1309, looked up)
chain: LPAHQQHLLHNDIADGLDKTALSVSGTQSRWTRSESNPTMRLSQNVKPCKSMDIRNMVSHFNQLENCTVIEGFLLIDLINDASPLNRSFPKLTEVTDYIIIYRVTGLHSLSKIFPNLSVIRGNKLFDGYALVVYSNFDLMDLGLHKLRSITRGGVRIEKNHKLCYDRTIDWLEILAENETQLVVLTENGKEKECRLSKCPGEIRIEEGHDTTAIEGELNASCQLHNNRRLCWNSKLCQTKCPEKCRNNCIDEHTCCSQDCLGGCVIDKNGNESCISCRNVSFNNICMDSCPKGYYQFDSRCVTANECITLTKFETNSVYSGIPYNGQCITHCPTGYQKSENKRMCEPCPGGKCDKECSSGLIDSLERAREFHGCTIITGTEPLTISIKRESGAHVMDELKYGLAAVHKIQSSLMVHLTYGLKSLKFFQSLTEISGDPPMDADKYALYVLDNRDLDELWGPNQTVFIRKGGVFFHFNPKLCVSTINQLLPMLASKPKFFEKSDVGADSNGNRGSCGTAVLNVTLQSVGANSAMLNVTTKVEIGEPQKPSNATIVFKDPRAFIGFVFYHMIDPYGNSTKSSDDPCDDRWKVSSPEKSGVMVLSNLIPYTNYSYYVRTMAISSELTNAESDVKNFRTNPGRPSKVTEVVATAISDSKINVTWSYLDKPYGVLTRYFIKAKLINRPTRNNNRDYCTEPLVKAMENDLPATTPTKKISDPLAGDCKCVEGSKKTSSQEYDDRKVQAGMEFENALQNFIFVPNIRKSKNGSSDKSDGAEGAALDSNAIPNGGATNPSRRRRDVALEPELDDVEGSVLLRHVRSITDDTDAFFEKDDENTYKDEEDLSSNKQFYEVFAKELPPNQTHFVFEKLRHFTRYAIFVVACREEIPSEKLRDTSFKKSLCSDYDTVFQTTKRKKFADIVMDLKVDLEHANNTESPVRVRWTPPVDPNGEIVTYEVAYKLQKPDQVEEKKCIPAADFNQTAGYLIKLNEGLYSFRVRANSIAGYGDFTEVEHIKVEPPPSYA
modifications: N-glycosylation at Asn606 (traces in the cryoEM reconstruction)
notes: a starting methionine was added in front; codon optimised; Asn335 is the first residue seen in the maps; Described as an (alpha-beta)2 homodimer; each protomer comes from one expressed precursor chain (alpha and beta subunits), protomers linked by disulfides; Mass used for ITC 233538 g/mol (the dimer); also called dmIR ectodomain; source: Sf9 cells, baculovirus, secreted into conditioned media, …
stoichiometry N: 2
